Drawing on publication PMC12502762, this text covers EC50 for one molecule.

The test has as its target PA domain 3 (Bacillus anthracis). Kind of test: ELISA. Background: In an ELISA, binding on a coated surface is turned into a signal by an enzyme label.

Chain of PA domain 3 (Bacillus anthracis) (P13423 517-624 limits assumed): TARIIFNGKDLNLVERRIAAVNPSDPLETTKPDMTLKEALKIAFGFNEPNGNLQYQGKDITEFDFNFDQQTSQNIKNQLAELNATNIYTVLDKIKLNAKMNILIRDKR

B1: antibody 8A7 (antibody, V domains shown)
VH: EVQLLESGGGLVQPGGSLRLSCAASGFSFSSYAMSWVRQAPGTGLEWVSGISGSGDNIYYADSVKGRFTISRDNSKNTVYMQMNSLRAEDTALYYCAKFSGHYGSGSFHLPEYFQHWGQGTLVTVSS
VL: DIQMTQSPATLSASIGDRVTITCRASQSISSWLAWYQQKPGKAPKVLIYKASRLESGVPSRFSGSGSGTEFTLTISSLQPDDFATYYCQQYNTYWTFGQGTKVEIIR
For orientation: EC50 means the concentration that produces a half-maximal response. A lower EC50 goes with an effect from little substance. Take B1: the EC50 came out at 0.06 nM.
